Assay results as given in US20250042994A1 (HAINAN SIMCERE ZAIMING PHARMACEUTICAL, published 2025).

T1: cynomolgus monkey CD19 on peripheral blood B cells (cynomolgus monkey (Macaca fascicularis), UniProt A0A2K5W8L9 20-557)
T1 construct: whole, on cells; also called cynomolgus monkey B cells
T1 sequence: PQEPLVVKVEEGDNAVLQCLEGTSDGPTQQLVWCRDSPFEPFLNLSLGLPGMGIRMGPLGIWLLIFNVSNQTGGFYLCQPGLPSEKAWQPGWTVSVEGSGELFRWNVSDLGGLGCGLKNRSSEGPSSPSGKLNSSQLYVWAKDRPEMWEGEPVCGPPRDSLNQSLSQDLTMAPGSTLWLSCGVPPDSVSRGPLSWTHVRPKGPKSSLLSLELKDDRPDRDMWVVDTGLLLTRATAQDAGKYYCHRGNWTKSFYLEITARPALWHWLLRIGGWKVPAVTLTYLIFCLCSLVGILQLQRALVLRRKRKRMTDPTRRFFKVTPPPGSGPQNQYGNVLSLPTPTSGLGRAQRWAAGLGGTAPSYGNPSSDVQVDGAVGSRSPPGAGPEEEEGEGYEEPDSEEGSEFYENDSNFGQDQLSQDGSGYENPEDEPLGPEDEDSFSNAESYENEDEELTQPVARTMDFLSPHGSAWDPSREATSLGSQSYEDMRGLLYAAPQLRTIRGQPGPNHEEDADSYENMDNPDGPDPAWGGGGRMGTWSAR

T2: human CD19 on CHO-K1-human CD19 cells (human, UniProt P15391 20-556)
T2 construct: whole, on cells; also called CHO-K1-human CD19-2C8
T2 sequence (looked up): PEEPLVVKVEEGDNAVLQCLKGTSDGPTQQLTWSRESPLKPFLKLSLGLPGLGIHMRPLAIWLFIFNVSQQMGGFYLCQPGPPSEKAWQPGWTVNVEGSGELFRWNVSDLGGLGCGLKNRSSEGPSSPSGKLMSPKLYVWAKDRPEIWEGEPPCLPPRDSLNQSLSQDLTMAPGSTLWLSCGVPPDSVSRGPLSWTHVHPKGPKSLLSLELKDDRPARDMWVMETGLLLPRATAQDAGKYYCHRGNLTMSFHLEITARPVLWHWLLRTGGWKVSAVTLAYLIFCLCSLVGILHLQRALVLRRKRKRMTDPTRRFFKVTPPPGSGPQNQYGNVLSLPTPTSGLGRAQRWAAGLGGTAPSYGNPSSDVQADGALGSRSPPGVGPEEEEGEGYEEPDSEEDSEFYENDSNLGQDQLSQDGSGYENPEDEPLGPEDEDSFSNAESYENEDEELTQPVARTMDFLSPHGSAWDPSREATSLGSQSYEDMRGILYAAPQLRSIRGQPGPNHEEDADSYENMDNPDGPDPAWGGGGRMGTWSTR

T3: human CD19 on Raji cells (human, UniProt P15391 20-556)
T3 construct: whole, on cells
T3 sequence (looked up): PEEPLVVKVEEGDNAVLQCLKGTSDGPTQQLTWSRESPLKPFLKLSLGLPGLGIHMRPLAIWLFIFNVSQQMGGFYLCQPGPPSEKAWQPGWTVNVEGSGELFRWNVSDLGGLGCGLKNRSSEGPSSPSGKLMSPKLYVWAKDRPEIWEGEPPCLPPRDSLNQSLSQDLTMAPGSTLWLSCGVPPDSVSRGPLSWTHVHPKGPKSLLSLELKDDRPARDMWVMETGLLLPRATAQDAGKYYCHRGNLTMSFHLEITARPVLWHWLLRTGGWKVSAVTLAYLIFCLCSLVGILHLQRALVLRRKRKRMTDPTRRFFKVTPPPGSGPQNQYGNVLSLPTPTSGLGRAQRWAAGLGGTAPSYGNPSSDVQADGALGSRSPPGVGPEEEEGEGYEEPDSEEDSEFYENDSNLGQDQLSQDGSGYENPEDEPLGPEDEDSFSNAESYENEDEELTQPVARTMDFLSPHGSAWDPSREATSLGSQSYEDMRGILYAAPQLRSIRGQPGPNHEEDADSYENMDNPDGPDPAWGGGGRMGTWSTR


Legend:
[1] = target: T1, cynomolgus monkey CD19 on peripheral …; experiment: FACS, cynomolgus PBMC, CD20+ B cells
[2] = target: T2, human CD19 on CHO-K1-human CD19 cells; experiment: FACS on CHO-K1-human CD19 cells
[3] = target: T3, human CD19 on Raji cells; experiment: FACS on Raji cells
[4] = target: T4, monkey CD19 on HEK293T-monkey CD19 cells (monkey); experiment: FACS on HEK293T-monkey CD19 cells
T4 construct: whole, on cells
Method in brief: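 Antibody binding was read as MFI by flow cytometry and EC50 was taken from curve fitting. Before that, cells at 2×10⁶ cells/ml in PBS with 2% (w/w) BSA were exposed to samples for 2 h on ice and washed. Parental HEK293T cells were tested the same way.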

Binder	Proportion of chimeric antibody positive cells to B cells (%) at 1 nM [1] [%]	Proportion of chimeric antibody positive cells to B cells (%) at 10 nM [1] [%]	Proportion of chimeric antibody positive cells to B cells (%) at 100 nM [1] [%]	EC50 [2] [nM]	Maximum mean fluorescence intensity [2]	EC50 [3] [nM]	Maximum mean fluorescence intensity [3]	Maximum mean fluorescence intensity [4]	EC50 [4] [nM]
F4.96.6 (antibody, human IgG1, V domains shown, human-murine chimeric antibody, human IgG1) VH: EIQLQQSGPELVKPGASVKVSCKASGYAFSAYNIYWVKQSHGKSLEWIGYIDPYNSGTTYNQKFRGKATLTVDKSSNTAYMHLSSLTSEDSAVYYCTRDGDAMDYWGQGTSVTVSS VL: EILLTQSPAIIAASPGEKVTITCSASSGVIYMNWYQQKPGSSPKIWIYDVSTLASGVPARFSGSGSGTSFSFTINSMEAEDVATYYCQQRSSYPYTFGGGTKLEIK	1	2	1	1.16	52000	0.74	25700	73	–
F4.107.12 (antibody, human IgG1, V domains shown, human-murine chimeric antibody, human IgG1) VH: EVQLQQSGPELVKPGASVKMSCKASGYTFTSYVLHWVRQKPGQGLEWIGYFNPYNDGTEYNEKFKGKAILTSDKSSSTAYMELNSLTSEDSAVYYCVGGTYYYGSSYPFAYWGQGTLVTVST VL: DVVMTQISLSLPVSLGDQASISCRSSQSLIHSNGNTYLQWYLQKPGQSPKLLIYKVSNRLSGVPDRFSGSGSGTDFTLKISRVEAEDLGVYFCSQSTHVPYTFGGGTKLEIK	20	35	67	0.77	59900	0.6	26700	69500	1.24
F4.152.7 (antibody, human IgG1, V domains shown, human-murine chimeric antibody, human IgG1) VH: QVQLQQPGAELVKPGASVKLSCKASGYTFTSYWMHWVKQRPGQGLEWIGEIDPSDSYTNYNQKFKGKATLTADKSSSTAYMQLSGLTSEDSAVYHCARGGDYDGYYVMDYWGQGTSVTVSS VL: EIVLTQSPTTMAASPGEKITITCSASSSISSNYLHWYQQKPGFSPKLLIYRTSNLASGVPARFSGSGSGTSYSLTIGTMEADDVATYYCQQGSYIPRIFTFGSGTKLEIK	2	2	3	0.78	58900	0.76	26000	58	–
F4.49.11 (antibody, human IgG1, V domains shown, human-murine chimeric antibody, human IgG1) VH: DVQLRASGPGLVKPSQSLSLTCSVTGYSITSGYYWNWIRQFPGNKLEWMGCISYDGTNNYNPSLKNRISFTRDTSKNQFFLNLNSVTTEDSATYYCARRVYYRYDGVVDYWGQGTSVTVSS VL: ENVLTQSPAIMSASPGEKVTMTCSASSSVSYIHWYQQKSSTAPKLWIYDTSKLASGVPGRFSGSRSRNSYSLTISSMEAEDVATYYCFQGSGYPLTFGSGTKLEIK	67	96	98	3.1	44200	6.21	20300	73500	3.08
F4.41.1 (antibody, human IgG1, V domains shown, human-murine chimeric antibody, human IgG1) VH: QVQLQQSGAELVRPGTSVKVSCKASGYAFTNYLIEWVKQRPGQGLEWIGVINPGSGDTLYNEKFKGKATLTADKSSTTAYMQLSGLTSDVSAIYFCARSPPITTIVADYFDYWGQGTTLTVSS VL: DIQMTQTTSSLSASLGDRVTISCRASQDISNYLNWYQQKPDGTVKLLIYYTSRLHSGVPSRFSGSGSGADYSLTISNLEQEDIATYFCQQGKTLPYTFGGGTKLEIK	1	2	2	1.49	48600	1.02	23400	545	–
F4.78.1 (antibody, human IgG1, V domains shown, human-murine chimeric antibody, human IgG1) VH: QVQIQQSGAELARPGASVKLSCKASGYTFTNYWMQWIKQRPGQGLEWIGAIYPGDGDTRYTQKFKGKATLTADKSSSTAYMQLSSLASEDSAVYYCAREEVWSPYGMDYWGQGTSVTVSS VL: QIVLTQSPAIMSASPGEKVTITCSASSSVSYMGWFQQKPGTSPKLWIYSTSNLASGVPARFSGSGSGTSYSLTISRMEAEDAATYYCQQRSIYPLTFGAGTKLELK	21	29	74	0.51	44300	1.52	36900	57000	0.73

Stronger by EC50 [2], values ahead:

Proportion of chimeric antibody positive cells to B cells (%) at 1 nM [1] [%]	Proportion of chimeric antibody positive cells to B cells (%) at 10 nM [1] [%]	Proportion of chimeric antibody positive cells to B cells (%) at 100 nM [1] [%]	EC50 [2] [nM]	Maximum mean fluorescence intensity [2]	EC50 [3] [nM]	Maximum mean fluorescence intensity [3]	Maximum mean fluorescence intensity [4]	EC50 [4] [nM]	Binder
3	15	50	0.34	26500	1.89	32300	59600	1.14	F4.191.1 (antibody, human IgG1, V domains shown, human-murine chimeric antibody, human IgG1) VH: QVQLQQPGAELVRPGASVKLSCKASGYTFTSYWINWVKQRPGQGLEWIGNIHPSDSYTNYNQKFKDKATLTVDKSSSTAYMQFSSPTSEDSAVYYCTREDYYYGSNYDAMDYWGQGTSVTVSS VL: DIVMTQSHKFMSTSVGDRVNITCKASQDVGSSVAWYQQKPGQSPKLLIYWASTRHAGVPDRFTGSGSGADFTLTISNVQSEDLADYFCQQYSTYPLTFGAGTKLELK
1	8	22	0.48	52700	0.55	29300	14300	184	F4.48.12 (antibody, human IgG1, V domains shown, human-murine chimeric antibody, human IgG1) VH: QMQLKESGPGLVAPSQSLSITCTVSGFSLTDYGVSWIRQPPGKGLEWLGVIWGSGSTFYNSALTSRLSISKDNSKSQVFLKMNSLQTADTAMYFCAKHHYYGGSFAMDYWGQGTSVTVSS VL: DIQMTQASSSLSASLGDRVTISCKTSQDISNYLNWYQQKPDGTFKLLIHYTSRLHSGVPSRFSGSGSGSDYSLTISNLEREDIATYFCQQGNSLPYTFGGGTKLEMK
2	2	6	~0.035	8490	0.51	24600	58	–	F4.37.6 (antibody, human IgG1, V domains shown, human-murine chimeric antibody, human IgG1) VH: QVQLQQSGAELARPGASVKLSCKASGYTFTSFWMQWLKQRPGQGLEWIGTIYPGDGDTRYTQKFKGKATLTADKSSNTAYMQLSSLASEDSAVYYCARGALSNYGGFAYWGQGTLVTVSA VL: NIVLTQSPASLAVSLGQRATISCRASESVDSYGHSFMHWYQQKPGQPPKLLIYLASNLESGVPARFSGSGSRTDFTLTIDPVEADDAATYYCQQNNEDPWTFGGGTKLEIK
97	98	99	0.32	26000	0.85	16600	66600	1.18	F4.82.11 (antibody, human IgG1, V domains shown, human-murine chimeric antibody, human IgG1) VH: QVTLKESGPGILQASQTLSLTCSFSGFSLSTFGIGVGWVRQPSGKGLEWLAHIWWNDNKFFNTTLKNRLTLSKDPSNNQVFLKIASVDTADTATYYCARSRSALITTGLYAMDYWGQGTSVTVSS VL: DIQMTQTPSSLSASLGDRVTISCRSSQDISNYVNWYQQKPDGTVKVLINYTSRLHSGVPSRFSGSGSGTDYSLTISNLEQEDIASYFCQQGFTLPYTFGGGTKLEIK
